# Assay results from patent publication US20210340225A1.
# Biological target: recombinantly expressed RBD ([change] domain) of bat sarbecovirus WIV16 (bat SARS-like coronavirus WIV16)
substance,measurement,value
47D11 fully human IgG1 monoclonal antibody,EC50 (read off the curve),0.09 µg/mL
